Tests used:
[1] = molecular target: the molecule itself; test: mass photometry; room temperature; proteins incubated at CDT1:geminin monomer ratios 0:1, 1:0, 1:2, 1:3, 2:4, 1:4 (1 part = 150 nM) in pre-RC buffer minus Triton X-100, diluted 1:10 in PBS on the instrument; MHD, CHD at 1:2
[2] = molecular target: T1, CDT1 middle helical domain (CDT1^MHD, residues 158–396) (human, UniProt Q9H211 158-396); test: as above; conditions: both partners purified
T1 construct: CDT1, human, UniProt Q9H211, residues 158-396; also called CDT1^158-396; source: E. coli, purified as CDT1^ΔN with the POROS HS step omitted
T1 sequence (looked up): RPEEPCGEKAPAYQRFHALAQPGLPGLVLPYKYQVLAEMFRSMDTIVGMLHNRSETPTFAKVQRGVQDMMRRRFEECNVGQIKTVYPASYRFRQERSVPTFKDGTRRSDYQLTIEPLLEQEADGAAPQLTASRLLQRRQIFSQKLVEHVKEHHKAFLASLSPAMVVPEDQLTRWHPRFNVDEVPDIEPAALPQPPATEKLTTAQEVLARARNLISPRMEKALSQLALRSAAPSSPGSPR

[3] = molecular target: T2, CDT1^ΔN (N-terminally truncated CDT1^158-546) (human, UniProt Q9H211 158-546); test: as above; conditions: both partners purified
T2 construct: CDT1, human, UniProt Q9H211, residues 158-546 (lacks the unstructured N-terminus); Plasmid is in Supplementary Data 1; The His tag serves for capture on the NTA chip in the SPR with peptides; also called standard CDT1 construct; source: E. coli BL21 (DE3), purified (HisTrap Excel, POROS HS, Superdex 200); not shown: His6, N-terminal, kept
T2 sequence (looked up): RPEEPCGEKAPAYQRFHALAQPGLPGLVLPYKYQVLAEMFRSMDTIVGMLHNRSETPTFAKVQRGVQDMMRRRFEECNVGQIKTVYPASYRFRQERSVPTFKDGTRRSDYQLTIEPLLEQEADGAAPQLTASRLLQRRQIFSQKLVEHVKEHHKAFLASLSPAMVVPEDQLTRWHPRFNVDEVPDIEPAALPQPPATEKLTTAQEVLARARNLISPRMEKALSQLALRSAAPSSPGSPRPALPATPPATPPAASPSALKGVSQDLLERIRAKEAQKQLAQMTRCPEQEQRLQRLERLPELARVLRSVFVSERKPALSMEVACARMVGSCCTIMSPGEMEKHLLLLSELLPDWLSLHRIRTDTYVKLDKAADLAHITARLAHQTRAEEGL

[4] = molecular target: T3, CDT1^R330A (on a CDT1^ΔN background) (human, UniProt Q9H211 158-546, R330A); test: as above; conditions: both partners purified
T3 construct: CDT1, human, UniProt Q9H211, residues 158-546 with R330A; source: E. coli, purified as for the MHD and CHD
T3 sequence (looked up): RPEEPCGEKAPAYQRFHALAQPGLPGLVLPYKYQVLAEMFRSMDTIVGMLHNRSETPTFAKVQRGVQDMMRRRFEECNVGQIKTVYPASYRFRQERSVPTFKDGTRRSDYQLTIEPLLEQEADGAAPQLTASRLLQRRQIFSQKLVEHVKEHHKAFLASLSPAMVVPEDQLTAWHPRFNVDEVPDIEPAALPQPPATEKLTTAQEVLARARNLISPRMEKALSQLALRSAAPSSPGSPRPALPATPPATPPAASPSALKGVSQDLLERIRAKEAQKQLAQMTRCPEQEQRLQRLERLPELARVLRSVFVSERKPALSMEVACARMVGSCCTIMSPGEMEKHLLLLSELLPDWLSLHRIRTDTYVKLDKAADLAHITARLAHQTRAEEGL

[5] = molecular target: T4, CDT1^4A (CDT1^ΔN with residues 327–330 mutated to alanines) (human, UniProt Q9H211 158-546, residues 327–330 mutated to alanines (CDT1^4A)); test: as above; conditions: both partners purified
T4 construct: CDT1, human, UniProt Q9H211, residues 158-546 with residues 327-330 all alanine; R330 is; source: E. coli, purified as for the MHD and CHD
T4 sequence (looked up): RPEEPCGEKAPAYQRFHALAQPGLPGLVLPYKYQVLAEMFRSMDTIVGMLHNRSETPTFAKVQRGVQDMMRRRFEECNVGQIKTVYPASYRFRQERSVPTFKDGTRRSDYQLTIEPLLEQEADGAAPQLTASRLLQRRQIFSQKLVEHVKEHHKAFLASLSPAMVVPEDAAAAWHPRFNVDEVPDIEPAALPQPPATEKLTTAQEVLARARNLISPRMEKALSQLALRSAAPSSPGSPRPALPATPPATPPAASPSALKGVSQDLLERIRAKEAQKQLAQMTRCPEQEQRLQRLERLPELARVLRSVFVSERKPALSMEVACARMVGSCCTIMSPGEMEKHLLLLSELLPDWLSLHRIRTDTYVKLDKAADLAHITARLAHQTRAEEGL

[6] = molecular target: T5, CDT1^ΔN (N-terminally truncated CDT1^158-546) (human, UniProt Q9H211 158-546); test: SPR
T5 chain: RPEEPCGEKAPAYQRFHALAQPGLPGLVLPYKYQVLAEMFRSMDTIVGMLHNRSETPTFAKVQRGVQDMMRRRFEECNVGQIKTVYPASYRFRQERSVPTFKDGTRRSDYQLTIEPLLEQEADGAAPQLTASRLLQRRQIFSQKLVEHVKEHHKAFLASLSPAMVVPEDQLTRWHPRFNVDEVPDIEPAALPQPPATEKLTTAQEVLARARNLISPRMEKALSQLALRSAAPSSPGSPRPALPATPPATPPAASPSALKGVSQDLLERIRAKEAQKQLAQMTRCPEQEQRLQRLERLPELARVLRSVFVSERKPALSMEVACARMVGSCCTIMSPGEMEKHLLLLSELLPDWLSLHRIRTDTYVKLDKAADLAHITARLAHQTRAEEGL

[7] = molecular target: T2, CDT1^ΔN (N-terminally truncated …); test: SPR; single-cycle; CDT1^ΔN covalently immobilised on a CM5 chip (EDC/NHS); Gem^FL dimer injected, 7 injections, three-fold steps up to 750 nM; 25 °C; 10 mM HEPES, 500 mM NaCl, 50 µM EDTA, 1 mM TCEP-HCl, 0.05% Tween-20, pH 8.0; 1:1 kinetic model of analyte dimer:CDT1; conditions: both partners purified
[8] = molecular target: T6, full-length CDT1 (CDT1^FL), untagged, co-expressed with geminin (CG complex) (human, UniProt Q9H211 1-546); test: SEC-MALS; co-expressed and co-purified CDT1^FL-geminin (CG) complex at >25× higher concentration than in the pre-RC assay; conditions: both partners purified
T6 construct: CDT1, human, UniProt Q9H211, residues 1-546; A separate GST-cleaved CDT1^FL was used only in pre-RC assays; also called CDT1 of the CG complex; source: E. coli BL21 (DE3), co-expressed with His-geminin, co-purified as described for geminin
T6 sequence (looked up): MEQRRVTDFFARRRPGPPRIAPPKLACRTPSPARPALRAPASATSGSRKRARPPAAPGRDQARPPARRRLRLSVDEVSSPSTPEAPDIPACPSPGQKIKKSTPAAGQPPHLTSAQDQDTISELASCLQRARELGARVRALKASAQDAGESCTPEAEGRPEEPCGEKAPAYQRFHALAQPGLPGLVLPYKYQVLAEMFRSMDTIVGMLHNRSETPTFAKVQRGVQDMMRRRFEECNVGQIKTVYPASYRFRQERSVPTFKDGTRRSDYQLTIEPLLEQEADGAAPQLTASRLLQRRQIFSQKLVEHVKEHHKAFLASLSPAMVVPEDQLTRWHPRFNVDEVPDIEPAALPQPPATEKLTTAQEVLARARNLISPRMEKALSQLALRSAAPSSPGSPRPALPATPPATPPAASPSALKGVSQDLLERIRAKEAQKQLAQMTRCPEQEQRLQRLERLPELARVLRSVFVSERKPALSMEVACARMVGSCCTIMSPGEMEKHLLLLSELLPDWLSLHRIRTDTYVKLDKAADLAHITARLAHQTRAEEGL

B1: full-length geminin (Gem^FL) (natural protein, human, UniProt O75496 1-209, looked up)
chain: MNPSMKQKQEEIKENIKNSSVPRRTLKMIQPSASGSLVGRENELSAGLSKRKHRNDHLTSTTSSPGVIVPESSENKNLGGVTQESFDLMIKENPSSQYWKEVAEKRRKALYEALKENEKLHKEIEQKDNEIARLKKENKELAEVAEHVQYMAELIERLNGEPLDNFESLDNQEFDSEEETVEDSLVEDSEIGTCAEGTVSSSTDAKPCI
notes: geminin, human, UniProt O75496, full length; Dimer in solution; In the co-purification of the CG complex the His tag is still on geminin at the HisTrap step and is cleaved afterwards; Plasmid is in Supplementary Data 1; also called WT geminin; source: E. coli BL21 (DE3), purified (HisTrap Excel, POROS HQ, Superdex 200); also co-expressed with untagged CDT1 in E. coli BL21 (DE3) and purified in …
[1]
  stoichiometry N: 1.91 ± 0.09
[2]
  stoichiometry N: 2 geminin monomers per CDT1^MHD
[3]
  stoichiometry N: 2 geminin monomers per CDT1
[4]
  stoichiometry N: 2 geminin monomers per CDT1
[5]
  stoichiometry N: 2 geminin monomers per CDT1
[6]
  koff: 0.0019 s⁻¹
[7]
  Kd: 12 nM
[8]
  stoichiometry N: 2 geminin monomers per CDT1

From paper PMC12695944, “Geminin inhibits DNA replication licensing by sterically blocking CDT1-MCM2 interactions” (Nature Communications, 2025)
